Measured values from the Human Domainome abundance scans (Beltran et al. 2025).
± gives the uncertainty stated by the source.

B1: Nucleosome-remodeling factor subunit BPTF, residues 2862 to 2918; numbered along this chain, Q12830 (parent)
chain: TKKDTKLYCICKTPYDESKFYIGCDRCQNWYHGRCVGILQSEAELIDEYVCPQCQST

Variants of: B1
Experiment: abundance fitness (aPCA) (normalised: wild type 0, dead -1); higher = more abundant; growth selection in yeast, the domain comes from the species named
Settings: Homo sapiens

| Variant | abundance fitness |
| --- | --- |
| Q55C | -0.072 ± 0.09 |
| Q55V | -0.18 ± 0.08 |
| Q55I | -0.141 ± 0.12 |
| Q55K | 0.021 ± 0.11 |
| Q55F | -0.375 ± 0.13 |
| Q55N | -0.09 ± 0.12 |
| Q55M | -0.188 ± 0.095 |
| Q55Y | -0.474 ± 0.13 |
| Q55A | -0.025 ± 0.084 |
| Q55P | -0.101 ± 0.094 |
| Q55E | 0.01 ± 0.094 |
| Q55L | -0.157 ± 0.078 |
| Q55G | -0.187 ± 0.075 |
| Q55R | -0.142 ± 0.068 |
| Q55D | 0.174 ± 0.1 |
| Q55H | -0.167 ± 0.12 |
| Q55T | -0.196 ± 0.076 |
| Y49W | -0.055 ± 0.12 |
| Y49G | -0.526 ± 0.11 |
| Y49A | -0.382 ± 0.094 |
| Y49V | -0.381 ± 0.091 |
| Y49P | -0.494 ± 0.13 |
| Y49Q | -0.615 ± 0.15 |
| Y49S | -0.427 ± 0.075 |

| Variant | abundance fitness |
| --- | --- |
| Y49D | -0.715 ± 0.12 |
| Y49F | -0.069 ± 0.11 |
| Y49T | -0.447 ± 0.1 |
| Y49C | -0.761 ± 0.18 |
| Y49M | -0.481 ± 0.11 |
| Y49H | -0.491 ± 0.17 |
| Y49R | -0.47 ± 0.085 |
| Y49L | -0.36 ± 0.075 |
| T57L | -0.569 ± 0.28 |
| T57C | -0.003 ± 0.24 |
| T57H | -0.172 ± 0.32 |
| T57G | -0.16 ± 0.18 |
| T57I | -0.115 ± 0.1 |
| T57V | -0.052 ± 0.14 |
| T57Y | -0.33 ± 0.28 |
| T57Q | -0.469 ± 0.43 |
| T57M | -0.509 ± 0.36 |
| T57A | 0.024 ± 0.091 |
| T57R | -0.106 ± 0.17 |
| T57E | -0.022 ± 0.21 |
| T57P | -0.044 ± 0.16 |
| T57S | 0.068 ± 0.11 |
| D47P | -0.107 ± 0.12 |
| D47N | -0.03 ± 0.087 |

| Variant | abundance fitness |
| --- | --- |
| D47K | 0.089 ± 0.093 |
| D47R | -0.044 ± 0.071 |
| D47L | -0.058 ± 0.072 |
| D47T | -0.051 ± 0.092 |
| D47S | -0.053 ± 0.067 |
| D47W | -0.326 ± 0.12 |
| D47Q | 0.077 ± 0.1 |
| D47M | -0.14 ± 0.14 |
| D47V | -0.138 ± 0.088 |
| Q53A | -0.052 ± 0.079 |
| Q53M | -0.139 ± 0.11 |
| Q53L | -0.047 ± 0.084 |
| Q53H | -0.017 ± 0.14 |
| Q53E | -0.009 ± 0.092 |
| Q53W | -0.25 ± 0.14 |
| Q53P | -0.054 ± 0.093 |
| Q53K | -0.122 ± 0.11 |
| Q53R | -0.078 ± 0.08 |
| Q53Y | -0.266 ± 0.13 |
| Q53N | 0.078 ± 0.11 |
| Q53S | -0.092 ± 0.089 |
| Q53C | -0.16 ± 0.13 |
| Q53D | 0.037 ± 0.11 |
| Q53G | 0.028 ± 0.092 |

| Variant | abundance fitness |
| --- | --- |
| Q53I | 0.09 ± 0.13 |
| Q53T | 0.054 ± 0.091 |
| S56W | -0.554 ± 0.47 |
| S56Y | -0.191 ± 0.45 |
| S56K | -0.03 ± 0.39 |
| S56R | 0.074 ± 0.35 |
| S56G | -0.195 ± 0.27 |
| S56N | 0.269 ± 0.4 |
| S56F | -0.063 ± 0.22 |
| V50L | 0.015 ± 0.074 |
| V50S | -0.167 ± 0.077 |
| V50R | -0.145 ± 0.062 |
| V50A | -0.252 ± 0.088 |
| V50N | -0.203 ± 0.14 |
| V50D | -0.268 ± 0.15 |
| V50T | 0.037 ± 0.086 |
| V50H | -0.288 ± 0.12 |
| V50I | -0.013 ± 0.095 |
| V50M | -0.159 ± 0.11 |
| V50Y | -0.357 ± 0.11 |
| V50Q | -0.191 ± 0.14 |
| V50G | -0.672 ± 0.088 |
| V50F | -0.099 ± 0.12 |
| V50P | -0.558 ± 0.1 |

| Variant | abundance fitness |
| --- | --- |
| V50K | -0.102 ± 0.11 |
| V50C | -0.228 ± 0.095 |
| V50W | -0.156 ± 0.078 |
| V50E | 0.132 ± 0.15 |
| C51E | -0.75 ± 0.096 |
| C51Q | -0.98 ± 0.15 |
| C51M | -0.688 ± 0.15 |
| C51R | -0.743 ± 0.088 |
| C51L | -0.889 ± 0.093 |
| C51H | -0.848 ± 0.23 |
| C51T | -0.981 ± 0.13 |
| C51Y | -0.928 ± 0.14 |
| C51N | -0.904 ± 0.16 |
| C51K | -0.774 ± 0.16 |
| C51P | -0.919 ± 0.19 |
| C51D | -0.718 ± 0.14 |
| C51A | -0.777 ± 0.094 |
| C51I | -1.08 ± 0.17 |
| C51S | -0.53 ± 0.089 |
| C51F | -0.916 ± 0.11 |
| E48T | -0.002 ± 0.096 |
| E48A | -0.008 ± 0.095 |
| E48V | -0.022 ± 0.09 |
| E48K | -0.109 ± 0.12 |

| Variant | abundance fitness |
| --- | --- |
| E48C | -0.009 ± 0.099 |
| E48Q | -0.161 ± 0.12 |
| E48S | 0.051 ± 0.088 |
| E48G | -0.112 ± 0.095 |
| E48P | 0.086 ± 0.086 |
| E48L | -0.139 ± 0.083 |
| E48H | -0.062 ± 0.11 |
| E48I | -0.063 ± 0.12 |
| E48R | 0.055 ± 0.07 |
| E48W | -0.295 ± 0.12 |
| E48N | 0.076 ± 0.14 |
| E48Y | -0.125 ± 0.1 |
| E48F | -0.262 ± 0.11 |
| C54M | -0.648 ± 0.11 |
| C54D | -0.819 ± 0.17 |
| C54F | -1.06 ± 0.14 |
| C54I | -1.06 ± 0.15 |
| C54H | -0.512 ± 0.13 |
| C54S | -0.889 ± 0.085 |
| C54R | -0.875 ± 0.1 |
| C54A | -0.851 ± 0.12 |
| C54T | -1.01 ± 0.12 |
| C54W | -0.802 ± 0.12 |
| C54V | -0.934 ± 0.1 |

| Variant | abundance fitness |
| --- | --- |
| C54K | -0.613 ± 0.1 |
| C54E | -0.776 ± 0.16 |
| C54P | -0.64 ± 0.12 |
| C54N | -0.802 ± 0.16 |
| C54Y | -0.983 ± 0.13 |
| C54G | -0.755 ± 0.14 |
| P52E | 0.009 ± 0.091 |
| P52V | -0.017 ± 0.08 |
| P52L | -0.125 ± 0.076 |
| P52R | -0.048 ± 0.077 |
| P52S | 0.054 ± 0.082 |
| P52G | -0.019 ± 0.079 |
| P52M | -0.149 ± 0.11 |
| P52A | -0.058 ± 0.08 |
| P52D | 0.113 ± 0.12 |
| P52I | -0.108 ± 0.14 |
| P52C | -0.186 ± 0.11 |
| P52K | 0.126 ± 0.1 |
| P52Q | -0.033 ± 0.12 |
| P52F | 0.032 ± 0.12 |
| P52W | -0.345 ± 0.13 |
| P52Y | -0.327 ± 0.14 |
| P52T | -0.071 ± 0.079 |
